Patent US20220153859A1 (ANOKION, published 2022)
Positions count from the first letter of the chain named.

T1: Human glycophorin A extract (hGPA extract) (human, UniProt P02724 20-150)
T1 construct: also called human GPA extracted from red blood cells (extract)
T1 sequence (looked up): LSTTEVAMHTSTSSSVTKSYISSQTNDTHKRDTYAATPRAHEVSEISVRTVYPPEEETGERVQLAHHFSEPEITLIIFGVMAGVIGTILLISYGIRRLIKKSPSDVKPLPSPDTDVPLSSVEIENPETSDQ

T2: Human glycophorin A on human erythrocytes (human, UniProt P02724 20-150)
T2 construct: whole, on cells; Target of the flow cytometry assays on human erythrocytes; also called human GPA; hGPA
T2 sequence (looked up): T1 sequence (looked up)

B1: Humanized & affinity matured 10F7-M10 Fab clone L1+2-7 (Fab)
heavy: EVQLLESGGGLVQPGKSLRLSCKASGYTFNSYFMHWVRQAPGKGLEWVGMIRPNGGTTDYNEKFKNRFTLSVDKSKNTAYLQMNSLRAEDTAVYYCARWEGSYYALDYWGQGTASTKGPSVFPLAPSSKSTSGGTAALGCLVKDYFPEPVTVSWNSGALTSGVHTFPAVLQSSGLYSLSSVVTVPSSSLGTQTYICNVNHKPSNTKVDKKVEPKSC
light: EITLTQSPATLSLSPGERATLSCRASSNVHHMYWYQQKPGQAPRLWIHHTSLLASGIPDRFSGSGSGTDYTLTISRLEPEDFAVYYCQQFTSSPYTFGQGTKVEVKRTVAAPSVFIFPPSDEQLKSGTASVVCLLNNFYPREAKVQWKVDNALQSGNSQESVTEQDSKDSTYSLSSTLTLSKADYEKHKVYACEVTHQGLSSPVTKSFNRGEC
notes: Soluble Fab from HEK cells; all domains other than VL are the same as wild-type 10F7-M10; also called HH-HH-L
B2: Humanized & affinity matured 10F7-M10 Fab clone L1+2-19 (Fab)
heavy: B1 heavy
light: B1 light with H30Y, H31Q, L52F
notes: the tie is by these residues, not by the label; also called YQ-HH-F
B3: Humanized & affinity matured 10F7-M10 Fab clone L1+2-16 (Fab)
heavy: B1 heavy
light: B1 light with H30F, H31Q, L52E
notes: Soluble Fab from HEK cells; all domains other than VL are the same as wild-type 10F7-M10; also called FQ-HH-E
B4: hF-3-103M1 Fab (humanized 3-103, clone M1; parental / wild-type Fab) (Fab, V domains shown)
VH: QVQLVQSGAEVKKPGASVKVSCTASGFNIKDTYMLWVRQAPGQGLEWMGRIDPANANSRYDPKFQGRVTITADTSTNTAYMELSSLRSEDTAVYYCVDGYMFAYWGQGTLVTVSS
VL: DVVMTQTPLSLSVTPGQPASISCKSSQSLLYSNGKTYLHWLLQKPGQSPQRLIYLVSKLDSGVPDRFSGSGSGTDFTLKISRVEAEDVGVYYCVQGTHFPLTFGQGTKLEIKR
notes: Soluble humanized Fab; also called parent Fab

Experiments:
[1] = target: T1, Human glycophorin A extract (hGPA …); assay: Biacore SPR, hGPA extract, apparent; biphasic off-rate to fit data
[2] = target: T1, Human glycophorin A extract (hGPA …); assay: Biacore SPR, hGPA extract, apparent KD; biphasic off-rate to fit data
[3] = target: T2, Human glycophorin A on human …; assay: flow cytometry (FACS) on human erythrocytes, soluble Fab
[4] = target: T1, Human glycophorin A extract (hGPA …); assay: Octet BLI, hGPA extract, apparent KD; biphasic off-rate to fit data
[5] = target: T1, Human glycophorin A extract (hGPA …); assay: Octet BLI, hGPA extract, apparent; biphasic off-rate to fit data
[6] = target: T2, Human glycophorin A on human …; assay: flow cytometry on human erythrocytes, Fab in culture supernatant [C]
How it was run: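 Fabs chosen from one CDR library by next-generation-sequencing enrichment were expressed as soluble Fabs in HEK cells in high-throughput format. Fab concentration in the culture supernatant was quantified by Octet biolayer interferometry. Supernatant Fabs were tested for binding to human erythrocytes by flow cytometry, read as median fluorescence intensity curves. These curves were compared with the parental Fab.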

| Binder | koff [1] | kon [1] | Kd [2] | EC50 [3] | Kd [4] | koff [5] | kon [5] | binding result [6] |
| --- | --- | --- | --- | --- | --- | --- | --- | --- |
| B1 | 0.00371 s⁻¹ | 160000 M⁻¹ s⁻¹ | 23.2 nM | 6.9 nM | 23 nM | 0.0037 s⁻¹ | 160000 M⁻¹ s⁻¹ |  |
| B2 | 0.00326 s⁻¹ | 477000 M⁻¹ s⁻¹ | 6.83 nM | 4.6 nM | 6.83 nM | 0.0033 s⁻¹ | 480000 M⁻¹ s⁻¹ |  |
| B3 | 0.00376 s⁻¹ | 608000 M⁻¹ s⁻¹ | 6.18 nM | 4.6 nM | 6.18 nM | 0.0038 s⁻¹ | 610000 M⁻¹ s⁻¹ |  |
| B4 |  |  |  |  |  |  |  | binds |
